Laboratory results reported in patent US20240409637A1.
One block for each substance: values may come before it.

Experiments:
[1] = biological target: human CD8 alpha and beta subunit on JRT3.T3/AP1-Luc/CD28/CD8AB/1G4AB clone 18 reporter T cells (human) (UniProt P01732); assay: cell-based or functional assay
[2] = biological target: human CD8 on cells (primary human CD8 positive T cells; T cells of mice expressing hCD8; human PBMC-derived lymphocytes) (human) (UniProt P01732); assay: cell-based or functional assay
Chain of human CD8 on cells (primary human CD8 positive T cells; T cells of mice expressing hCD8; human PBMC-derived lymphocytes) (human) (P01732 22-235, chain 1 of 2): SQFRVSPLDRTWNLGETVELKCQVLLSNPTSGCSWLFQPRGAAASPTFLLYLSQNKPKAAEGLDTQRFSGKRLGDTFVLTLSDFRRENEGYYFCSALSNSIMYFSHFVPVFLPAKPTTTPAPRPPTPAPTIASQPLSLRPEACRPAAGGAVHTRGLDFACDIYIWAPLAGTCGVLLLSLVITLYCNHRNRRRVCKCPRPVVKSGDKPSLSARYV
Chain of human CD8 on cells (primary human CD8 positive T cells; T cells of mice expressing hCD8; human PBMC-derived lymphocytes) (human) (chain, as listed by the source, chain 2 of 2): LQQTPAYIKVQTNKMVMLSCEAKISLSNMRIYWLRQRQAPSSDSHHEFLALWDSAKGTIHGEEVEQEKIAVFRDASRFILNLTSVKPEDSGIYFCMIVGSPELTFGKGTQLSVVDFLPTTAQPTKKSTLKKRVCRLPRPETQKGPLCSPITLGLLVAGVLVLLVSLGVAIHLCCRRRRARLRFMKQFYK

Chain of human CD8 alpha and beta subunit on JRT3.T3/AP1-Luc/CD28/CD8AB/1G4AB clone 18 reporter T cells (human) (P01732 22-235, chain 1 of 2): as the sequence (P01732 22-235, chain 1 of 2) above
Chain of human CD8 alpha and beta subunit on JRT3.T3/AP1-Luc/CD28/CD8AB/1G4AB clone 18 reporter T cells (human) (P10966 22-210, chain 2 of 2, further chain): as the sequence (chain, as listed by the source, chain 2 of 2) above

Reduction of T cell response at 100 nM [%], CD8 T cell/APC luciferase assay [1]: 6.2%
Substance: Isotype 2 (antibody)

Percent Inhibition of IFNγ Production, one-way MLR Reaction 1, 0.5 nM antibody [2]: 0.5%
Percent Inhibition of IFNγ Production, one-way MLR Reaction 1, 5 nM antibody [2]: 3.9%
Percent Inhibition of IFNγ Production, one-way MLR Reaction 1, 50 nM antibody [2]: -6.6%
Percent Inhibition of IFNγ Production, one-way MLR Reaction 2, 0.5 nM antibody [2]: 2.3%
Percent Inhibition of IFNγ Production, one-way MLR Reaction 2, 5 nM antibody [2]: 3.4%
Percent Inhibition of IFNγ Production, one-way MLR Reaction 2, 50 nM antibody [2]: 25.4%
Substance: isotype control antibody (irrelevant isotype matched antibody)

IC50 [M], reduction of AP1-luciferase activity in CD8 T cell/APC luciferase assay [1]: 1.61e-10 M
Reduction of T cell response at 100 nM [%], CD8 T cell/APC luciferase assay [1]: 97.9%
Substance: Clone RPA-T8 (commercially available anti-CD8 antibody)

Reduction of T cell response at 100 nM [%], CD8 T cell/APC luciferase assay [1]: 7.4%
Substance: Isotype 1 (antibody)
